Earlier results, collected in article PMC7699679.

Assays:
C5aR (Homo sapiens) = C5aR (Homo sapiens) (UniProt P21730)
CXCR2 (Homo sapiens) = CXCR2 (Homo sapiens) (UniProt P25025)
CXCR1 (Homo sapiens) = CXCR1 (Homo sapiens) (UniProt P25024)
CCR2 (Homo sapiens) = CCR2 (Homo sapiens) (UniProt P41597)
Sequence of UniProt P41597 (P41597 whole entry): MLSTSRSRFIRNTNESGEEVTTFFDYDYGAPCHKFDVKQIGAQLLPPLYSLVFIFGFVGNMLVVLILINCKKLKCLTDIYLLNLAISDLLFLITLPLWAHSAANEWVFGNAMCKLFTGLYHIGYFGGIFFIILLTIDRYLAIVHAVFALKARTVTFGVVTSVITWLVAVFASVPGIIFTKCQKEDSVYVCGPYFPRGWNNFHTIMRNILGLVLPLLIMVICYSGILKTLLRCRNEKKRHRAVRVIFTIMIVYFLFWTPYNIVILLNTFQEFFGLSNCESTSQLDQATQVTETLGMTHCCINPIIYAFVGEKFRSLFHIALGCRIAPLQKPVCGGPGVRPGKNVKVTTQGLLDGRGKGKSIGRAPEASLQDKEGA

Sequence of UniProt P25024 (P25024 whole entry): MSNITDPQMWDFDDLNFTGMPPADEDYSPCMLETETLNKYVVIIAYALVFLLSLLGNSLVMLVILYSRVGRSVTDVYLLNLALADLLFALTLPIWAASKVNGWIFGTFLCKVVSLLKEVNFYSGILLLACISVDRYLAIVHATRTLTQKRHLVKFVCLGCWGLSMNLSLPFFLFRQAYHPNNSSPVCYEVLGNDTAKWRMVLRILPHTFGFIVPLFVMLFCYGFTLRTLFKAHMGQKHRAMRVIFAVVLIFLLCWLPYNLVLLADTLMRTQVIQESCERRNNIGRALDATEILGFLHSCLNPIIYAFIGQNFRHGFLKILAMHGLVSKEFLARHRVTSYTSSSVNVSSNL
Sequence of UniProt P25025 (P25025 whole entry): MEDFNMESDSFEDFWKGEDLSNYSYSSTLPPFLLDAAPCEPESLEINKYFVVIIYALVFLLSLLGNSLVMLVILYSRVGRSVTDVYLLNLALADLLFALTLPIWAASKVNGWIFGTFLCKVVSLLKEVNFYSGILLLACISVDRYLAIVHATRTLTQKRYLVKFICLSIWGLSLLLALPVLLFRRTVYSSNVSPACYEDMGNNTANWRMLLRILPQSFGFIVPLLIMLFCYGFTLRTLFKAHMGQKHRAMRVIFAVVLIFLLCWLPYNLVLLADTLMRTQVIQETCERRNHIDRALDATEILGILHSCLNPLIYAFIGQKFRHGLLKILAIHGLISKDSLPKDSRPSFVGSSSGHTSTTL
Sequence of UniProt P21730 (P21730 whole entry): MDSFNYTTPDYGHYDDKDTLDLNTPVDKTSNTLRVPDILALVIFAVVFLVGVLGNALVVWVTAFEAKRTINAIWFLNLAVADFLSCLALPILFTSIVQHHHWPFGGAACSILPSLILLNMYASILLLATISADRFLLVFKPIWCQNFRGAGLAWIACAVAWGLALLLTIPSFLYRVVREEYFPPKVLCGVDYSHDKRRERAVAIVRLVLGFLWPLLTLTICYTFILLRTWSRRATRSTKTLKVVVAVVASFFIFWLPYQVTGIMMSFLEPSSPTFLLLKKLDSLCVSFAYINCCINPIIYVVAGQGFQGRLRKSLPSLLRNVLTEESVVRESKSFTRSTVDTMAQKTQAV

| Substance | Kd (C5aR (Homo sapiens)) | Kd (CXCR2 (Homo sapiens)) | Kd (CXCR1 (Homo sapiens)) | Kd (CCR2 (Homo sapiens)) |
| --- | --- | --- | --- | --- |
| HlgC (from UniProt Q07227) | 5.64 nM |  |  |  |
| HlgA (from UniProt Q5HDD6) |  | 27.2 nM | 5.69 nM | 3.51 nM |
